Test [1] concerns the target T1, AtGPA1, Arabidopsis Gα subunit, His-tagged (Arabidopsis thaliana) (UniProt P18064).
T1 sequence: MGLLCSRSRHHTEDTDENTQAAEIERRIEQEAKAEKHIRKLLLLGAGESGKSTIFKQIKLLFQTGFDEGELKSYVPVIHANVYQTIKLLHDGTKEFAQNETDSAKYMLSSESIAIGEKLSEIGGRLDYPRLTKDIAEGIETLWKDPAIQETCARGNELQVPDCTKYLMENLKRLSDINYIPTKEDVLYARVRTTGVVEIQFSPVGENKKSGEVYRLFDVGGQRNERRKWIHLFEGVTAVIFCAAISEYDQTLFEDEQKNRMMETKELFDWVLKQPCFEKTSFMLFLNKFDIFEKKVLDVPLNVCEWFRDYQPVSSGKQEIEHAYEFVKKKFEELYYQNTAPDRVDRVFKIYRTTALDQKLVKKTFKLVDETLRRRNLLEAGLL

Test [2] concerns the target T1, AtGPA1, Arabidopsis Gα subunit, His-tagged (Arabidopsis thaliana). This is another data set of the same source.

B1: C-terminal domain of AtRGS1 (residues 284–459), His-tagged (domain or fragment)
chain: KEEFRPVDPNEPLDKLLLNKRFRHSFMEFADSCYAGETLHFFEEVYEHGKIPEDDSIRRIYMARHIMEKFIVAGAEMELNLSHKTRQEILTTQDLTHTDLFKNALNEVMQLIKMNLVRDYWSSIYFIKFKEEESCHEAMHKEGYSFSSPRLSSVQGSDDPFYQEHMSKSSRCSSPG
Take B1: the rate constant of single turnover GTP hydrolysis by AtGPA1 with 30 nM RGS1box in test [1] is 0.18 min⁻¹. In test [2], this molecule registered a GAP activity as ΔK per molecule, single turnover GTPase assay (min^−1 pmol^−1) of 0.0378.
